One assay deals with T1, c-Src tyrosine kinase (Mus musculus, UniProt P05480, P80A).
T1 construct: Full length human c-Src gene was per amplified from the vector of pUSE human O-Src wild (Upstate Biotechnology); host or cells: sf9 insect cells co-infected with two recombinant baculoviruses
The assay can be described thus: tyrosine phosphorylation on co-expression with c-Src in insect cells, western blotting with phosphorylated tyrosine specific antibody. The format is cell-based, Spodoptera frugiperda. To be noted: glutathione bead purified, FIG. 2, FIG. 4. The text has this: The results shown in FIG. 4 were obtained by co-expressing a fused protein GST-DDR2 CKD, a fused protein (GST-DDR1b CKD) of the GST and the human DDR1b cytosolic tyrosine kinase domain, a fused protein (GST-Akt1) of the GST and the full-length mouse Akt1 kinase and a fused protein (GST-CDK4) of the GST and the full-length human CDK4 kinase with the c-Src protein without GST tagging in insect cells, respectively; purifying the respective expressed product using glutathione beads; performing SDS-PAGE; and performing the western blotting test using a phosphorylated tyrosine specific antibody and coomassie staining.
The results shown in FIG. 4 have been obtained by co-expressing the full-length c-Src protein together with the fused proteins, GST-DDR2 CKD, GST-DDR1b CKD, GST-Akt1 and GST-CDK4, respectively; in sf9 cells, then performing a western blotting test on each purified GST tagged protein using a phosphorylated tyrosine specific antibody. The presence of a similar amount of each purified GST tagged protein was shown by CBB staining.
GST tagged kinase defective DDR2 cytosolic domain (GST-kd-DDR2-CKD) with intact three tyrosines in the activation loop or with various phenylalanine mutations described in the text were co-expressed with Src in sf9 cells. GST tagged proteins were purified and the same amount of proteins estimated by CBB staining was used for western blotting using P-tyro antibody.
(§1) Phospho-tyrosine specific antibody was purchased from Cell Signaling Inc, USA. Specific antibodies to human c-Src, human c-Fyn, and she were obtained from SantaCruz, USA. Samples were boiled for 2 min in 1× lameli sample buffer, and loaded in 10% SDS-PAGE. Proteins were transferred to Immobilon-P membrane (Millipore) and blacked by 10% skim milk in TBS for an hour. The membrane was immunoblotted with antibodies for 2 hours and subsequently washed with 1×TBS five times. Then it was incubated with HRP conjugated secondary antibodies for an hour and protein bands were detected using chemiluminescence kit (Amersham).

For a further assay, the target named is T2, c-Fyn tyrosine kinase (Homo sapiens, UniProt P06241).
T2 construct: Full length human c-Fyn gene was per amplified from the vector containing full length human c-Fyn purchased from Invitrogen, USA; host or cells: sf9 insect cells co-infected with two recombinant baculoviruses
The experiment in a line: tyrosine phosphorylation on co-expression with c-Fyn in insect cells, western blotting with phosphorylated tyrosine specific antibody. The format is cell-based. To be noted: FIG. 2.
Source text: In order to check the expression of c-Src protein in the case of co-expressing the GST-DDR2 CKD and the c-Src (lane 2), a portion of lysate of the host cells is undergone a SDS-PAGE and then a western blotting using a c-Src protein specific antibody. Likewise in order to check the expression of c-Fyn protein in the case of co-expressing the GST-DDR2 CKD and the c-Fyn (lane 3), a portion of lysate of the host cells is undergone a SDS-PAGE and then a western blotting using a c-Fyn protein specific antibody.
The presence of equal amount of protein at each lane was estimated by coomassie brilliant blue (CBB) staining. The co-expression of c-Src or c-Fyn protein was confirmed by western blotting on aliquot of total cell lysate using human c-Src or c-Fyn specific antibody.
as §1

The next assay deals with sf9 cells. The experiment in a line: tyrosine phosphorylation by H2O2 processing of expressing insect cells, western blotting with phosphorylated tyrosine specific antibody. The format is cell-based, Spodoptera frugoperda. Particulars: 200 μM H2O2 for half of an hour; FIG. 2, FIG. 5. The procedure:
The results shown in FIG. 5 were obtained by solely expressing the fused proteins, GST-DDR2 CKD, the GST-DDR1b CKD, the GST-CDK4 and the GST-CDK1, respectively, in insect cells; processing with 200 μM of H2O2 for half of an hour; purifying the respective expressed product using glutathione beads; performing the SDS-PAGE; and performing the western blotting test using an phosphorylated tyrosine specific antibody and coomassie staining.
The results shown in FIG. 5 have been obtained by solely expressing GST-DDR2 CKD, GST-DDR1b CKD, GST-CDK4 and GST-CDK1, respectively in sf9 cells; processing each expressed cells with H2O2 of 200 uM for half of an hour or not; and then purifying the GST tagged protein followed by a western blotting using a phosphorylated tyrosine specific antibody. The presence of a similar amount of each purified GST tagged protein was shown by CBB staining.
The recombinant baculoviruses having the GST-DDR2 CKD coding gene were transfected into sf9 insect cells, by setting MOU to 10 and the cells were cultured for 24 to 72 hours, to express the protein. […], at the concentration of 200 μM was added to the cultured cells. The cells were left for half of an hour, and collected. The collected cells were lysed and the GST-DDR2 CKD was purified from the expressed products, using the glutathione agarose bead column chromatography. The purified protein was subjected to an electrophoresis in 10% polyacrylamaid gel.
After completing the electrophoresis, the protein developed in the gel was transferred to nitrocellulose, and then subjected to a western blotting using a phosphorylated tyrosine specific antibody (Cell signaling Inc, USA), to measure the chemiluminescence signal using x-ray film. For the control, the chemical luminescence of the case without H2O2 processing was measured by the method as mentioned above.

The test system of the next assay is shc protein. The experiment in a line: in vitro shc binding assay using HSC T6 cell lysate. More on the design: species or system human. The text has this: One of the characteristic features of tyrosine phosphorylated cytosolic domain of receptor tyrosine kinase is to recruit the signaling proteins such as shc protein. This complex formation between the cytosolic domain of receptor tyrosine kinase protein and signaling proteins such as shc is important for the cellular transmission of the activated receptor tyrosine kinase signal. It has been observed in HSC T6 liver stellate cells and fibroblast cells that shc, one of signaling protein containing PTB domain binds to activated DDR2 cytosolic domain. The present inventors examined whether the invented DDR2 cytosolic tyrosine kinase domain protein with induced tyrosine phosphorylation for example, by the method of co-expression with c-Src in sf 9 cells or with the mutation of tyrosine 740 to phenylalanine 740 can be used for in vitro shc binding assay. In FIG. 15, the purified GST-DDR2 cytosolic domain from sf 9 cells with and without Src coinfection were used for in vitro shc binding assay. Each protein was subject to autophosphorylation reaction at 30° C. for 15 min, and a mock-autophosphylation reaction as well where gamma-S-ATP was used instead of ATP in the reaction buffer before they were used for in vitro shc binding assay using HSC T6 cell lysate.
The purified GST-DDR2 CKD proteins without or with tyrosine phosphorylation by Src were subject to in vitro shc binding assay after autophosphorylation reaction or a mock-autophosphorylation reaction as described in materials and methods. The bound proteins on the glutathione bead were eluted by boiling in 1× lameli buffer. The presence of shc in the eluate was measured by western blotting using shc antibody and the accumulation of tyrosine phosphorylation at GST-DDR2 CKD proteins resulted from autophosphorylation was shown by western blotting using P-tyro antibody. The presence of an equal amount of GST-DDR2 CKD proteins in each eluate was confirmed by CBB staining. ‘Bead only’ means that no GST-DDR2 CKD protein was applied on glutathione bead as a control.
The same type of experiment was done as FIG. 15 using purified GST-DDR2 CKD phosphorylated by src and its mutant proteins of Y740F and Y736/740/741F.
As a source of shc protein, total lysate of HSC T6 cells was used. For the preparation of the lysate, 2×10^7 HSC T6 cells were harvested and lysed by sonication in 5 ml of lysis buffer consisting of 20 mM Tris-HCl (pH8.0), 0.1M NaCl, 5 mM DTT, 10 mM NaF, […], 0.02% IGE-PAL (Sigma) and a proteinase inhibitor cocktail pellet (Roche). The supernatant was obtained by centrifugation in 15,000 rpm for 10 min at 4° C. and used for the following shc binding assay. Various GST-DDR2 KD proteins bound to glutathione bead were obtained as described above. […]

“Also recorded” adds a separate entry of the source.

T2 sequence (P06241 2-482 isoform P06241-3): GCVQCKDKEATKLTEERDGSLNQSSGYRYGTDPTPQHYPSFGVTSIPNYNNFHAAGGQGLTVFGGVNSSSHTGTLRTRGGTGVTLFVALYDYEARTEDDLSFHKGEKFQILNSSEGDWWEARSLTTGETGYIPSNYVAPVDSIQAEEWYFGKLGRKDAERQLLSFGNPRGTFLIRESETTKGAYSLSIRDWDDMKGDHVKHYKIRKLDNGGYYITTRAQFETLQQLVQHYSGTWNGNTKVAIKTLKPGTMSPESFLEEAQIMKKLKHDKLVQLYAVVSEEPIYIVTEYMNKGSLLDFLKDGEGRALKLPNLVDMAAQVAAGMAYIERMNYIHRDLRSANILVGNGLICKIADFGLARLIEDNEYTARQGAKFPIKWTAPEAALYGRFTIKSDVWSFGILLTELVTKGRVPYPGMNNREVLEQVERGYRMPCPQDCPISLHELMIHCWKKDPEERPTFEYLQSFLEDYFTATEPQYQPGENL

B1: GST-DDR2 CKD: fusion protein of glutathione S transferase and human DDR2 cytosolic tyrosine kinase domain, solely expressed in insect cells (protein)
chain: MTVSLSLPSDSSMFNNNRSSSPSEQGSNSTYDRIFPLRPDYQEPSRLIRKLPEFAPGEEESGCSGVVKPVQPSGPEGVPHYAEADIVNLQGVTGGNTYSVPAVTMDLLSGKDVAVEEFPRKLLTFKEKLGEGQFGEVHLCEVEGMEKFKDKDFALDVSANQPVLVAVKMLRADANKNARNDFLKEIKIMSRLKDPNIIHLLSVCITDDPLCMITEYMENGDLNQFLSRHEPPNSSSSDVRTVSYTNLKFMATQIASGMKYLSSLNFVHRDLATRNCLVGKNYTIKIADFGMSRNLYSGDYYRIQGRAVLPIRWMSWESILLGKFTTASDVWAFGVTLWETFTFCQEQPYSQLSDEQVIENTGEFFRDQGRQTYLPQPAICPDSVYKLMLSCWRRDTKNRPSFQEIHLLLLQQGDE
modifications: left off: a dimerising Fc or GST
notes: fusion protein of glutathione S transferase and human DDR2 cytosolic tyrosine kinase domain, solely expressed in insect cells
B1: the “tyrosine phosphorylation induced by co-expression with c-Src” value in the assay with c-Src tyrosine kinase is recorded as “remarkably induced; also recorded: strongly induced”. For the same molecule, the “tyrosine phosphorylation induced by co-expression with c-Fyn” value with c-Fyn tyrosine kinase was “remarkably induced”. In addition, the “tyrosine phosphorylation induced by H2O2 processing” value with sf9 cells is reported as “remarkably induced; also recorded: strongly induced”. Also, the “shc binding after in vitro autophosphorylation reaction” value in the assay on shc protein (autophosphorylation at 30° C. for 15 min, FIG. 15, FIG. 16) was “failure to show an improved shc binding”. For the same molecule, the “shc binding before in vitro autophosphorylation” value in the assay with shc protein (mock-autophosphorylation with gamma-S-ATP, FIG. 15) is “did not attract shc protein binding significantly”.
